Experimental data from US20230212549A1 (3B PHARMACEUTICALS, published 2023).
Where “and” joins values, the source holds several entries; their conditions need not be identical. Identical values can stand only once. Numbered stars: 1 amine (or outer) side, 2 acyl side, 3 side chain; on linkers, the order of the positions; unused ones are H or OH. Bridge positions count the residues as written; N and C are the ends. Square brackets hold non-standard residues; d marks the D form. Primed or numbered codes have the meaning given here. * marks the point of attachment. tMeBn(DOTA-PP) = 1,3,5-trimethylbenzylidene, two thioethers to Cys, third CH2 bound to one N of piperazine whose other N bears DOTA, O=C(O)CN1CCN(CC(=O)O)CCN(CC(=O)N2CCN(Cc3cc(C[*:1])cc(C[*:2])c3)CC2)CCN(CC(=O)O)CC1; tMeBn(DOTA-PP)″ = trimethylbenzylidene (tMeBn) bridge between the two Cys thiols, whose remaining connection point carries a DOTA chelator via a PP linker; Ttds(6) = 1,13-Diamino-4,7,10-trioxatridecan-succinamic acid, O=C(CCC(=O)[*:2])NCCCOCCOCCOCCCN[*:1]; Ttds = 1,13-diamino-4,7,10-trioxatridecan-succinamic acid, O=C(CCC(=O)[*:2])NCCCOCCOCCOCCCN[*:1]; 3MeBn = 3-Methylbenzylidene (m-xylylene thioether bridge from α,α′-dibromo-m-xylene); N4Ac = 6-Carboxy-1,4,8,11-tetraazaundecane, an N4-chelator, NCCNCC(CNCCN)C(=O)*; APAc = 2-(4-(Amino)piperidin-1-yl)acetic acid, O=C(CN1CCC(N[*:1])CC1)[*:2]; 3MeBn(3) = 3-methylbenzylidene (m-xylylene), from α,α′-dibromo-m-xylene; DOTA = O=C(O)CN1CCN(CC(=O)O)CCN(CC(=O)*)CCN(CC(=O)O)CC1; mXylylene = c1cc(C[*:1])cc(C[*:2])c1; Pentanesulfonyl = CCCCCS(=O)(=O)*; Hyp = O=C(O)[C@@H]1C[C@@H](O)CN1; Nle = CCCC[C@H](N)C(=O)O; Nphe = O=C(O)CNCc1ccccc1; Hexanoyl = CCCCCC(=O)*

What was measured:
[1] = molecular target: T1, Recombinant human FAP (R&D systems, #3715-SE) (human, UniProt Q12884 26-760); test: SPR (Biacore T200), FAP captured on anti-FAP antibody, single cycle kinetics
T1 construct: bought; in SPR captured on immobilized anti-FAP antibody MAB3715; also called rhFAP; human recombinant FAP

[2] = molecular target: Recombinant human FAP (R&D systems, #3715-SE) (human, UniProt Q12884 26-760); test: cell-based or functional assay
[3] = molecular target: T2, fibroblast activation protein (FAP) on FAP-expressing human WI-38 fibroblasts (human, UniProt Q12884 1-760); test: competitive FACS, WI-38 cells, vs Cy5 tracer m3; B = pIC50 7.1-8.0
T2 construct: also called human FAP

[4] = molecular target: T1, Recombinant human FAP (R&D systems, …); test: cell-based or functional assay; remark: listed apart in the source

Binder	pKD Category [1] [pKD]	pIC50 Category (Activity) [2]	pIC50 Category (FACS) [3]	pIC50 Category (Activity) [4] [pIC50]
Pentanesulfonyl-CPPTQFCD-NH2 (linker 1-7 via tMeBn(DOTA-PP)″, also called 3BP-3692) [Pentyl-SO2-[Cys(tMeBn(DOTA-PP))-Pro-Pro-Thr-Gln-Phe-Cys]-Asp-NH2]	> 8	–	–	–
{DOTA}-[Ttds][Nle]CPPTEFC-NH2 (linker 3-9 via mXylylene; SMILES CCCC[C@H](NC(=O)CCC(=O)NCCCOCCOCCOCCCNC(=O)CN1CCN(CC(=O)O)CCN(CC(=O)O)CCN(CC(=O)O)CC1)C(=O)N[C@H]1CSCc2cccc(c2)CSC[C@@H](C(N)=O)NC(=O)[C@H](Cc2ccccc2)NC(=O)[C@H](CCC(=O)O)NC(=O)[C@H]([C@@H](C)O)NC(=O)[C@@H]2CCCN2C(=O)[C@@H]2CCCN2C1=O, also called 3BP-3319) [DOTA-Ttds-Nle-[Cys(3MeBn)-Pro-Pro-Thr-Glu-Phe-Cys]-NH2]	–	7.1 pIC50 and 8 pIC50	7.1 pIC50 and 8 pIC50	–
Hexanoyl-CTQPFPCD-NH2 (linker 1-7 via tMeBn(DOTA-PP); SMILES CCCCCC(=O)N[C@H]1CSCc2cc(cc(CN3CCN(C(=O)CN4CCN(CC(=O)O)CCN(CC(=O)O)CCN(CC(=O)O)CC4)CC3)c2)CSC[C@@H](C(=O)N[C@@H](CC(=O)O)C(N)=O)NC(=O)[C@@H]2CCCN2C(=O)[C@H](Cc2ccccc2)NC(=O)[C@@H]2CCCN2C(=O)[C@H](CCC(N)=O)NC(=O)[C@H]([C@@H](C)O)NC1=O) [Hex-[Cys(tMeBn(DOTA-PP))-Thr-Gln-Pro-Phe-Pro-Cys]-Asp-NH2]	–	–	–	≤ 6
CPPTQFX (not fully specified; N-term Hex; X7 = AET; Cys1/AET7 thioether-cyclised via tMeBn(DOTA-AET), also called 3BP-3654) [Hex-[Cys(tMeBn(DOTA-AET))-Pro-Pro-Thr-Gln-Phe-AET]]	> 8	–	–	–
Hexanoyl-C[Nphe]PTQFC-NH2 (linker 1-7 via mXylylene; SMILES CCCCCC(=O)N[C@H]1CSCc2cccc(c2)CSC[C@@H](C(N)=O)NC(=O)[C@H](Cc2ccccc2)NC(=O)[C@H](CCC(N)=O)NC(=O)[C@H]([C@@H](C)O)NC(=O)[C@@H]2CCCN2C(=O)CN(Cc2ccccc2)C1=O) [Hex-[Cys(3MeBn)-Nphe-Pro-Thr-Gln-Phe-Cys]-NH2]	–	–	–	≤ 6
Hexanoyl-CFQTPPCD-NH2 (linker 1-7 via tMeBn(DOTA-PP); SMILES CCCCCC(=O)N[C@H]1CSCc2cc(cc(CN3CCN(C(=O)CN4CCN(CC(=O)O)CCN(CC(=O)O)CCN(CC(=O)O)CC4)CC3)c2)CSC[C@@H](C(=O)N[C@@H](CC(=O)O)C(N)=O)NC(=O)[C@@H]2CCCN2C(=O)[C@@H]2CCCN2C(=O)[C@H]([C@@H](C)O)NC(=O)[C@H](CCC(N)=O)NC(=O)[C@H](Cc2ccccc2)NC1=O) [Hex-[Cys(tMeBn(DOTA-PP))-Phe-Gln-Thr-Pro-Pro-Cys]-Asp-NH2]	–	–	–	≤ 6
Hexanoyl-CPPTQWC-NH2 (linker 1-7 via mXylylene; SMILES CCCCCC(=O)N[C@H]1CSCc2cccc(c2)CSC[C@@H](C(N)=O)NC(=O)[C@H](Cc2c[nH]c3ccccc23)NC(=O)[C@H](CCC(N)=O)NC(=O)[C@H]([C@@H](C)O)NC(=O)[C@@H]2CCCN2C(=O)[C@@H]2CCCN2C1=O, also called 3BP-3408) [Hex-[Cys(3MeBn)-Pro-Pro-Thr-Gln-Trp-Cys]-NH2]	–	7.1 pIC50 and 8 pIC50	7.1 pIC50 and 8 pIC50	–
Hexanoyl-CPPTEFC-OH (linker 1-7 via mXylylene; SMILES CCCCCC(=O)N[C@H]1CSCc2cccc(c2)CSC[C@@H](C(=O)O)NC(=O)[C@H](Cc2ccccc2)NC(=O)[C@H](CCC(=O)O)NC(=O)[C@H]([C@@H](C)O)NC(=O)[C@@H]2CCCN2C(=O)[C@@H]2CCCN2C1=O, also called 3BP-3370) [Hex-[Cys(3MeBn)-Pro-Pro-Thr-Glu-Phe-Cys]-OH]	–	7.1 pIC50 and 8 pIC50	7.1 pIC50 and 8 pIC50	–
Hexanoyl-CP[Hyp]TEFC-NH2 (linker 1-7 via mXylylene; SMILES CCCCCC(=O)N[C@H]1CSCc2cccc(c2)CSC[C@@H](C(N)=O)NC(=O)[C@H](Cc2ccccc2)NC(=O)[C@H](CCC(=O)O)NC(=O)[C@H]([C@@H](C)O)NC(=O)[C@@H]2C[C@@H](O)CN2C(=O)[C@@H]2CCCN2C1=O, also called 3BP-3366) [Hex-[Cys(3MeBn)-Pro-Hyp-Thr-Glu-Phe-Cys]-NH2]	–	7.1 pIC50 and 8 pIC50	7.1 pIC50 and 8 pIC50	–

Continued, values first:

pKD Category [1] [pKD]	pIC50 Category (Activity) [2]	pIC50 Category (FACS) [3]	pIC50 Category (Activity) [4] [pIC50]	Binder
> 8	–	–	–	Hexanoyl-CPPTQFCD-NH2 (linker 1-7 via tMeBn(LuDOTA-PP); also: Lu complex (LuDOTA), also called 3BP-3591) [Hex-[Cys(tMeBn(LuDOTA-PP))-Pro-Pro-Thr-Gln-Phe-Cys]-Asp-NH2]
–	–	–	≤ 6	N4Ac-[APAc][Nle]CPPTEFC-OH (linker 3-9 via 3MeBn(3)) [N4Ac-APAc-Nle-[Cys-(3MeBn)-Pro-Pro-Thr-Glu-Phe-Cys]-OH]
> 8	–	–	–	Hexanoyl-CPPTQFCD-NH2 (linker 1-7 via tMeBn(InDOTA-PP); also: In complex (InDOTA), also called 3BP-3590) [Hex-[Cys(tMeBn(InDOTA-PP))-Pro-Pro-Thr-Gln-Phe-Cys]-Asp-NH2]
–	–	–	≤ 6	N4Ac-[Ttds(6)]E[Nle]CPPTEFC-OH (linker 4-10 via 3MeBn; not fully specified (residue 2); printed as N4Ac-Ttds-Glu(AGLU′)-Nle-[Cys-(3MeBn)-Pro-Pro-Thr-Glu-Phe-Cys]-OH) [N4Ac-Ttds-Glu(AGLU′)-Nle-[Cys-(3MeBn)-Pro-Pro-Thr-Glu-Phe-Cys]-OH]
